Results reported in patent US20090148863A1.

Key:
[1] = target: T-ZZ (transmembrane/translocation (T) domain of diphtheria toxin fused at its C-terminus with ZZ, a small portion of protein A) (UniProt P00588); test: slope of FIG. 6A in the first 60 min, 11.12 nM AgMMUA-IgG, T-ZZ at 0.37 molecules/um^2 on living cells
[2] = target: protein A (PrA) from Staphylococcus aureus (Staphylococcus aureus) (UniProt P38507); test: UV-vis absorbance against time, simulation matched to the data of FIG. 3B
[3] = target: protein A (PrA) from Staphylococcus aureus (Staphylococcus aureus) (UniProt P38507); test: UV-vis absorbance, average of equilibrium and kinetic methods, three repeats
[4] = target: T-ZZ (transmembrane/translocation (T) domain of diphtheria toxin fused at its C-terminus with ZZ, a small portion of protein A) (UniProt P00588); test: slope of FIG. 6A in the first 60 min, 2.78 nM AgMMUA-IgG, T-ZZ at 0.37 molecules/um^2 on living cells
[5] = target: T-ZZ (transmembrane/translocation (T) domain of diphtheria toxin fused at its C-terminus with ZZ, a small portion of protein A) (UniProt P00588); test: slope of FIG. 6B, 2.78 nM AgMMUA-IgG, T-ZZ at 0.21 molecules/um^2 on living cells
[6] = target: T-ZZ (transmembrane/translocation (T) domain of diphtheria toxin fused at its C-terminus with ZZ, a small portion of protein A) (UniProt P00588); test: slope of FIG. 6A in the first 60 min, 1.39 nM AgMMUA-IgG, T-ZZ at 0.37 molecules/um^2 on living cells
[7] = target: T-ZZ (transmembrane/translocation (T) domain of diphtheria toxin fused at its C-terminus with ZZ, a small portion of protein A) (UniProt P00588); test: single nanoparticle imaging on living cells with T-ZZ, value given in the summary
[8] = target: T-ZZ (transmembrane/translocation (T) domain of diphtheria toxin fused at its C-terminus with ZZ, a small portion of protein A) (UniProt P00588); test: counting single bound nanoparticles on living cells with T-ZZ against time (SNOMS, FIG. 6A)
[9] = target: protein A (PrA) from Staphylococcus aureus (Staphylococcus aureus) (UniProt P38507); test: UV-vis absorbance change, 1.1 nM AgMMUA-IgG with about 100 nM PrA in PBS
[10] = target: T-ZZ (transmembrane/translocation (T) domain of diphtheria toxin fused at its C-terminus with ZZ, a small portion of protein A) (UniProt P00588); test: isotherm of the fraction of bound T-ZZ on living cells against AgMMUA-IgG concentration at equilibrium (SNOMS)
[11] = target: T-ZZ (transmembrane/translocation (T) domain of diphtheria toxin fused at its C-terminus with ZZ, a small portion of protein A) (UniProt P00588); test: slope of FIG. 6A in the first 60 min, 5.56 nM AgMMUA-IgG, T-ZZ at 0.37 molecules/um^2 on living cells
[12] = target: protein A (PrA) from Staphylococcus aureus (Staphylococcus aureus) (UniProt P38507); test: UV-vis absorbance against time, slope of FIG. 3C

Chain of UniProt P00588 (P00588 234-410): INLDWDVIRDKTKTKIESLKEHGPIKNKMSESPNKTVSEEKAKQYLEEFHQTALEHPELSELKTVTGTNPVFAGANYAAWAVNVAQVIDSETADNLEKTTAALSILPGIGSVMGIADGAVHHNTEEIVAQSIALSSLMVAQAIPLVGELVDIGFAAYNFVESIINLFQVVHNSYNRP

Substance “AgMMUA-IgG nanoparticles (immunoglobulin G from rabbit serum covalently conjugated to 11.6 nm Ag nanoparticles carrying a mixed MUA/MCH monolayer) (antibody)” has a binding rate (molecules/min) [1] of 27, a koff [2] of 5.4e-05 s⁻¹ and a Ka [3] of 1.9e+06 M⁻¹. The binding rate (molecules/min) [4] was 5.3, the binding rate (molecules/min) [5] was 2.3 and the binding rate (molecules/min) [6] was 3. The Ka [7] was 4.3e+07 M⁻¹, the Ka [8] was 3e+07 M⁻¹ and the koff [8] was 0.0003 s⁻¹. It also gave a kon [8] of 9000 M⁻¹ s⁻¹, an amount of AgMMUA-IgG nanoparticles bound with PrA at equilibrium [9] of 0.14 nM and a Ka [10] of 4.8e+07 M⁻¹. For the same substance, the binding rate (molecules/min) [11] was 20 and the kon [12] was 120 M⁻¹ s⁻¹.
